Columns and labels:
Assay in all cases: fluorescence anisotropy
[1] = system: Protamine 1 AA (P1 S43AT45A) (mouse)
[2] = system: Protamine 1 EE (P1 S43ET45E) (mouse)
[3] = system: Protamine 1 WT (P1) (mouse)

99 bp fluorescent dsDNA
Kd [1]: 610 nM
Kd [2]: 1100 nM
Kd [3]: 430 nM
